T1: Recombinant Human SOST (human, UniProt Q9BQB4 24-213)
T1 construct: Biacore reagent from R&D Systems; the Wnt-1/luciferase assay used Human Sclerostin (Abbott PR-1261069); also called Sclerostin; Human Sclerostin
T1 sequence (looked up): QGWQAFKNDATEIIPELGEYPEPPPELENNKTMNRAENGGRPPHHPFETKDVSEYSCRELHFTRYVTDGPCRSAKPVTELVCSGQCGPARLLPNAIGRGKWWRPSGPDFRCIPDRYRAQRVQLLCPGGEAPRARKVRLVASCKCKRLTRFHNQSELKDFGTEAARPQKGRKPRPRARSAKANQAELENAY

B1: DVD1518 (bispecific antibody, human IgG1, kappa)
heavy: not shown
light: DVQMIQSPSSLSASLGDIVTMTCQASQGTSINLNWFQQKPGKAPKLLIYGSSNLEDGVPSRFSGSRYGTDFTLTISSLEDEDLATYFCLQHSYLPYTFGGGTKLEIKRTVAAPDIQMTQSPSSLSASVGDRVTITCRASQGIRIDLGWYQQKPGKAPKRLIYAASTLQSGVPSRFSGSGSGTEFIFTISSLQPEDFASYYCLQHKSYPLTFGGGTKVEIKRTVAAPSVFIFPPSDEQLKSGTASVVCLLNNFYPREAKVQWKVDNALQSGNSQESVTEQDSKDSTYSLSSTLTLSKADYEKHKVYACEVTHQGLSSPVTKSFNRGEC
B2: AB217 (antibody, V domains shown)
VH: QVQLVESGGGVVQPGRSLRLSCAASGFTFSSYDMHWVRQAPGKGLEWVAVIWSDGSIKYYADSVKGRFTISRDNSKNTLYLQMNSLRAEDTAVYYCAREVESAMGGFYYNGMDVWGQGTTVTVSS
VL: DIQMTQSPSSLSASVGDRVTITCRASQGIRIDLGWYQQKPGKAPKRLIYAASTLQSGVPSRFSGSGSGTEFIFTISSLQPEDFASYYCLQHKSYPLTFGGGTKVEIKR
notes: Parent antibody
B3: DVD1474 (bispecific antibody, human IgG1, kappa)
heavy: not shown
light: DVLMTQTPLSLPVTPGEPASISCTSSQNIVHSNGNTYLEWYLQKPGQSPQLLIYKVSNRFSGVPDRFSGSGSGTDFTLKISRVEAEDVGVYYCFQVSHVPYTFGGGTKVEIKRTVAAPSVFIFPPDIQMTQSPSSLSASVGDRVTITCRASQGIRIDLGWYQQKPGKAPKRLIYAASTLQSGVPSRFSGSGSGTEFIFTISSLQPEDFASYYCLQHKSYPLTFGGGTKVEIKRTVAAPSVFIFPPSDEQLKSGTASVVCLLNNFYPREAKVQWKVDNALQSGNSQESVTEQDSKDSTYSLSSTLTLSKADYEKHKVYACEVTHQGLSSPVTKSFNRGEC
B4: AB213 (antibody, V domains shown)
VH: QVQLKESGPGLVAPSQSLSITCTVSGFSLTDYGVNWVRQPPGKGLEWLGMIWGDGSTDYDSTLKSRLSISKDNSKSQIFLKMNSLQTDDTARYYCAREWHHGPVAYWGQGTLVTVSA
VL: DIVMTQSHKFMSTTVGDRVSITCKASQAVSSAVAWYQQKPGQSPKLLIYWASTRHTGVPDRFTGSGSVTDFTLTIHNLQAEDLALYYCQQHYSTPFTFGSGTKLEIKR
notes: Parent antibody
B5: DVD1507 (bispecific antibody, human IgG1, kappa)
heavy: not shown
light: DIVMTQSHKFMSTTVGDRVSITCKASQAVSSAVAWYQQKPGQSPKLLIYWASTRHTGVPDRFTGSGSVTDFTLTIHNLQAEDLALYYCQQHYSTPFTFGSGTKLEIKRTVAAPDVVMTQTPLSLPVSLGDQASISCTSGQSLVHINGNTYLHWYLQKPGQSPKLLIYKVSNLFSGVPDRFSGSGSGTDFTLKISRVEAEDLGVYFCSQSTHFPFTFGTGTKLEIKRTVAAPSVFIFPPSDEQLKSGTASVVCLLNNFYPREAKVQWKVDNALQSGNSQESVTEQDSKDSTYSLSSTLTLSKADYEKHKVYACEVTHQGLSSPVTKSFNRGEC
B6: DVD1516 (bispecific antibody, human IgG1, kappa)
heavy: not shown
light: DVLMTQTPLSLPVTPGEPASISCTSSQNIVHSNGNTYLEWYLQKPGQSPQLLIYKVSNRFSGVPDRFSGSGSGTDFTLKISRVEAEDVGVYYCFQVSHVPYTFGGGTKVEIKRTVAAPDIQMTQSPSSLSASVGDRVTITCRASQGIRIDLGWYQQKPGKAPKRLIYAASTLQSGVPSRFSGSGSGTEFIFTISSLQPEDFASYYCLQHKSYPLTFGGGTKVEIKRTVAAPSVFIFPPSDEQLKSGTASVVCLLNNFYPREAKVQWKVDNALQSGNSQESVTEQDSKDSTYSLSSTLTLSKADYEKHKVYACEVTHQGLSSPVTKSFNRGEC
B7: DVD1448 (bispecific antibody, human IgG1, kappa)
heavy: not shown
light: DVLMTQTPLSLPVTPGEPASISCTSSQNIVHSNGNTYLEWYLQKPGQSPQLLIYKVSNRFSGVPDRFSGSGSGTDFTLKISRVEAEDVGVYYCFQVSHVPYTFGGGTKVEIKRTVAAPSVFIFPPDIVMTQSHKFMSTTVGDRVSITCKASQAVSSAVAWYQQKPGQSPKLLIYWASTRHTGVPDRFTGSGSVTDFTLTIHNLQAEDLALYYCQQHYSTPFTFGSGTKLEIKRTVAAPSVFIFPPSDEQLKSGTASVVCLLNNFYPREAKVQWKVDNALQSGNSQESVTEQDSKDSTYSLSSTLTLSKADYEKHKVYACEVTHQGLSSPVTKSFNRGEC
B8: DVD1522 (bispecific antibody, human IgG1, kappa)
heavy: not shown
light: DVVMTQTPLSLPVSLGDQASISCTSGQSLVHINGNTYLHWYLQKPGQSPKLLIYKVSNLFSGVPDRFSGSGSGTDFTLKISRVEAEDLGVYFCSQSTHFPFTFGTGTKLEIKRTVAAPDIQMTQSPSSLSASVGDRVTITCRASQGIRIDLGWYQQKPGKAPKRLIYAASTLQSGVPSRFSGSGSGTEFIFTISSLQPEDFASYYCLQHKSYPLTFGGGTKVEIKRTVAAPSVFIFPPSDEQLKSGTASVVCLLNNFYPREAKVQWKVDNALQSGNSQESVTEQDSKDSTYSLSSTLTLSKADYEKHKVYACEVTHQGLSSPVTKSFNRGEC
B9: AB218 (antibody, V domains shown)
VH: EVQLVESGGGLIQPGGSLRLSCAASGFTVSRNYMSWVRQAPGKGLEWVSVIYSGDRTYYADSVKGRFTISRDNSKNTLYLQMNSLRAEDTAVYYCARGEGGFDYWGQGTLVTVSS
VL: EIVMTQSPATLSVSPGERATLSCRASQSVSSNLAWYQQKPGQAPRLLIHGASIRATGLPARFSGSGSGTEFTLTISSLQSEDFAVYYCQQYNYWWTFGQGTKVEIKR
notes: Parent antibody
B10: DVD1476 (bispecific antibody, human IgG1, kappa)
heavy: not shown
light: DVQMIQSPSSLSASLGDIVTMTCQASQGTSINLNWFQQKPGKAPKLLIYGSSNLEDGVPSRFSGSRYGTDFTLTISSLEDEDLATYFCLQHSYLPYTFGGGTKLEIKRTVAAPSVFIFPPDIQMTQSPSSLSASVGDRVTITCRASQGIRIDLGWYQQKPGKAPKRLIYAASTLQSGVPSRFSGSGSGTEFIFTISSLQPEDFASYYCLQHKSYPLTFGGGTKVEIKRTVAAPSVFIFPPSDEQLKSGTASVVCLLNNFYPREAKVQWKVDNALQSGNSQESVTEQDSKDSTYSLSSTLTLSKADYEKHKVYACEVTHQGLSSPVTKSFNRGEC
B11: DVD1496 (bispecific antibody, human IgG1, kappa)
heavy: not shown
light: DVQMIQSPSSLSASLGDIVTMTCQASQGTSINLNWFQQKPGKAPKLLIYGSSNLEDGVPSRFSGSRYGTDFTLTISSLEDEDLATYFCLQHSYLPYTFGGGTKLEIKRTVAAPDIVMTQSHKFMSTTVGDRVSITCKASQAVSSAVAWYQQKPGQSPKLLIYWASTRHTGVPDRFTGSGSVTDFTLTIHNLQAEDLALYYCQQHYSTPFTFGSGTKLEIKRTVAAPSVFIFPPSDEQLKSGTASVVCLLNNFYPREAKVQWKVDNALQSGNSQESVTEQDSKDSTYSLSSTLTLSKADYEKHKVYACEVTHQGLSSPVTKSFNRGEC
B12: DVD1475 (bispecific antibody, human IgG1, kappa)
heavy: not shown
light: DIQMTQSPSSLSASVGDRVTITCRASQGIRIDLGWYQQKPGKAPKRLIYAASTLQSGVPSRFSGSGSGTEFIFTISSLQPEDFASYYCLQHKSYPLTFGGGTKVEIKRTVAAPSVFIFPPDVQMIQSPSSLSASLGDIVTMTCQASQGTSINLNWFQQKPGKAPKLLIYGSSNLEDGVPSRFSGSRYGTDFTLTISSLEDEDLATYFCLQHSYLPYTFGGGTKLEIKRTVAAPSVFIFPPSDEQLKSGTASVVCLLNNFYPREAKVQWKVDNALQSGNSQESVTEQDSKDSTYSLSSTLTLSKADYEKHKVYACEVTHQGLSSPVTKSFNRGEC
notes: DVD-Ig; linker set 2; also called DVD1475H; DVD1475L
B13: AB022 (antibody, V domains shown)
VH: EVQLQQSGPELVTPGASVKISCKASGYTFTDHYMSWVKQSHGKSLEWIGDINPYSGETTYNQKFKGTATLTVDKSSSIAYMEIRGLTSEDSAVYYCARDDYDASPFAYWGQGTLVTVSA
VL: DVQMIQSPSSLSASLGDIVTMTCQASQGTSINLNWFQQKPGKAPKLLIYGSSNLEDGVPSRFSGSRYGTDFTLTISSLEDEDLATYFCLQHSYLPYTFGGGTKLEIKR
notes: Parent antibody; also called SOST parent antibody

These binders were tested against T2, Recombinant Human TNF-α/TNFSF1A (human, UniProt P01375 77-233) (assay: cell-based or functional assay).
T2 sequence (P01375 77-233 limits assumed): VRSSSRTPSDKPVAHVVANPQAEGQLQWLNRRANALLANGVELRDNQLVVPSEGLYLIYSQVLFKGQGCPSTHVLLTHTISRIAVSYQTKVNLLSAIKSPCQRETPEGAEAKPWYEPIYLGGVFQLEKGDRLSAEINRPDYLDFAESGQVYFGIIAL

Binder | TNFα Neutralization Assay EC50 (L929 cells)
B1 | 0.89 nM
B2 | 0.0762 nM
B3 | 0.273 nM
B4 | 0.124 nM
B5 | 0.133 nM
B6 | 8.71 nM
B7 | 1.39 nM
B8 | 4.18 nM
B9 | 0.045 nM
B10 | 0.139 nM
B11 | 0.085 nM
B12 | 0.002 nM

What follows are binders tested against T1, Recombinant Human SOST (assay: Biacore SPR).
Experimental: (§1) The BIACORE assay (Biacore, Inc, Piscataway, N.J.) determines the affinity of antibodies or DVD-Ig with kinetic measurements of on-rate and off-rate constants. Binding of antibodies or DVD-Ig to a target antigen (for example, a purified recombinant target antigen) is determined by surface plasmon resonance-based measurements with a Biacore® 1000 or 3000 instrument (Biacore® AB, Uppsala, Sweden) using running HBS-EP (10 mM HEPES [pH 7.4], 150 mM NaCl, 3 mM EDTA, and 0.005% surfactant P20) at 25° C. All chemicals are obtained from Biacore® AB (Uppsala, Sweden) or otherwise from a different source as described in the text. For example, approximately 5000 RU of goat anti-mouse IgG, (Fcγ), fragment specific polyclonal antibody (Pierce Biotechnology Inc, Rockford, Ill.) diluted in 10 mM sodium acetate (pH 4.5) is directly immobilized across a CMS research grade biosensor chip using a standard amine coupling kit according to manufacturer's instructions and procedures at 25 μg/ml. Unreacted moieties on the biosensor surface are blocked with ethanolamine. Modified carboxymethyl dextran surface in flowcell 2 and 4 is used as a reaction surface. Unmodified carboxymethyl dextran without goat anti-mouse IgG in flow cell 1 and 3 is used as the reference surface. For kinetic analysis, rate equations derived from the 1:1 Langmuir binding model are fitted simultaneously to association and dissociation phases of all eight injections (using global fit analysis) with the use of Biaevaluation 4.0.1 software. Purified antibodies or DVD-Ig are diluted in HEPES-buffered saline for capture across goat anti-mouse IgG specific reaction surfaces. Antibodies or DVD-Ig to be captured as a ligand (25 μg/ml) are injected over reaction matrices at a flow rate of 5 μl/min. The association and dissociation rate constants, kₒₙ (M⁻¹s⁻) and koff(s⁻¹) are determined under a continuous flow rate of 25 μl/min. Rate constants are derived by making kinetic binding measurements at different antigen concentrations ranging from 10-200 nM. The equilibrium dissociation constant (M) of the reaction between antibodies or DVD-Igs and the target antigen is then calculated from the kinetic rate constants by the following formula: KD=koff/kₒₙ. Binding is recorded as a function of time and kinetic rate constants are calculated.

Binder | Kd | koff | kon
B13 | 0.0408 nM | 0.000396 s⁻¹ | 9.68e+06 M⁻¹ s⁻¹
B12 | 0.9 nM | 0.00073 s⁻¹ | 810000 M⁻¹ s⁻¹

Each binder was assayed against T2, Recombinant Human TNF-α/TNFSF1A (assay: Biacore SPR).
Experimental: as §1

Binder | Kd | koff | kon
B2 | 0.0272 nM | 5.04e-05 s⁻¹ | 1.85e+06 M⁻¹ s⁻¹
B4 | 0.0335 nM | 0.000108 s⁻¹ | 3.23e+06 M⁻¹ s⁻¹
B9 | 0.0288 nM | 5.15e-05 s⁻¹ | 1.79e+06 M⁻¹ s⁻¹
B12 | 0.013 nM | 3.6e-05 s⁻¹ | 2.7e+06 M⁻¹ s⁻¹

From US20120087858A1 (AbbVie / Abbott, published 2012)
